Consider ten molecules from USRE48558 (Genentech, dated 2021).

Where no end group is shown, it is not given here.

The target in test [1] is T1, extracellular domain of human CD79b (human, UniProt P40259 29-159).
T1 construct: also called huCD79becd; huCD79b-ecd
T1 sequence: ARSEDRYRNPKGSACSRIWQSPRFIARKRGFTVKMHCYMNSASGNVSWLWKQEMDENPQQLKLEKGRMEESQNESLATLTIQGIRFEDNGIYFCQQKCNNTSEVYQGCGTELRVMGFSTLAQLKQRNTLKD
In words: phage selection, Fab on phage, plate-bound huCD79becd.

The target of test [2] is T2, human CD79b on the cell surface (human, UniProt P40259 29-229).
T2 construct: In the Scatchard analysis the BJAB line also stably expressed cynomolgus CD79b; also called PRO36249; endogenous human CD79b on DoHH-2, BJAB and BJAB-luciferase cells
T2 sequence: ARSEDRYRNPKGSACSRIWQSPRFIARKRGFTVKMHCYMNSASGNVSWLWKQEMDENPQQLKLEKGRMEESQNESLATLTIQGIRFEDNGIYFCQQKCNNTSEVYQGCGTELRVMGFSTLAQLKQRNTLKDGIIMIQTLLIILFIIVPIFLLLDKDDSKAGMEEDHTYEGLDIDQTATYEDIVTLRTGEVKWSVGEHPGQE
The test can be described thus: FACS on DoHH-2 cells, Fab, PE anti-human kappa detection.

Test [3] has as its target T3, 16 amino acid peptide containing the epitope for MA79b (ARSEDRYRNPKGSACK) (human, also: biotinylated, site not given here).
T3 construct: Synthetic
T3 peptide: ARSEDRYRNPKGSACK
In words: SPR (Biacore), biotinylated peptide captured on streptavidin chip. For orientation: In SPR one partner is held on a chip, and binding of the other changes the refractive index at the surface.

For test [4], the target named is T2, human CD79b on the cell surface. The test can be described thus: Scatchard analysis, 125I-labelled IgG competed with unlabelled IgG on BJAB cells stably expressing cynomolgus CD79b and endogenous human CD79b.
The target of test [5] is T1, extracellular domain of human CD79b. The test can be described thus: FACS analysis, IgG (data not shown); reference not given. On the technique in general: In flow cytometry, cells or beads pass a laser one at a time.
Test [6] shares this target. The test can be described thus: SPR (Biacore), IgG, immobilized huCD79becd; reference not given.
Test [7] addresses T4, extracellular domain of human CD79b fused to Fc (human, UniProt P40259 29-159).
T4 construct: also called huCD79becd-Fc; huCD79b-Fc; not shown: Fc part of the fusion
T4 sequence: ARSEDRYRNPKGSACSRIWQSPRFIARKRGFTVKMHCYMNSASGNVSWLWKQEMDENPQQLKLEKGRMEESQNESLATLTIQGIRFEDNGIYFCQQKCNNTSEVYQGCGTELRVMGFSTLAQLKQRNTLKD
In words: SPR (Biacore), Fab against MA79b Fab, immobilized huCD79becd-Fc.

The target of test [8] is T1, extracellular domain of human CD79b. The test can be described thus: SPR (Biacore), IgG, immobilized huCD79becd.
The target in test [9] is T2, human CD79b on the cell surface. The test can be described thus: Scatchard analysis, IgG, BJAB cells stably expressing cynomolgus CD79b and endogenous human CD79b.
Test [10] concerns the target T4, extracellular domain of human CD79b …. In words: SPR (Biacore), IgG compared with Fab, immobilized huCD79becd-Fc.

B1: huMA79b H3-10 (Fab) (Fab, name in Kabat numbering, V domains shown)
VH: EVQLVESGGGLVQPGGSLRLSCAASGYTFSSYWIEWVRQAPGKGLEWVGEILPGGGDTNYNEIFKGRFTISADTSKNTAYLQMNSLRAEDTAVYYCTRRVPIRLDYWGQGTLVTVSS
VL: DIQMTQSPSSLSASVGDRVTITCKASQSVDYDGDSFLNWYQQKPGKAPKLLIYAASNLESGVPSRFSGSGSGTDFTLTISSLQPEDFATYYCQQSNEDPLTFGQGTKVEIKR
notes: Fab on phage in the selection; purified Fab in FACS; rest as huMA79b graft; also called H3-10 mutation
B1: the binding result in [1] and in test [2] was “binds” each time.

B2: MA79b-grafted humanized antibody variant L2/H3 (antibody, name in Kabat numbering, V domains shown)
VH: EVQLVESGGGLVQPGGSLRLSCAASGYTFSSYWIEWVRQAPGKGLEWVGEILPGGGDTNYNEIFKGRFTISADTSKNTAYLQMNSLRAEDTAVYYCTRRVPIRLDYWGQGTLVTVSS
VL: DIQMTQSPSSLSASVGDRVTITCKASQSVDYDGDSFLNWYQQKPGKAPKLLIYAARKLGRGVPSRFSGSGSGTDFTLTISSLQPEDFATYYCQQSNEDPLTFGQGTKVEIKR
notes: 125I-labelled in the Scatchard analysis; also called huMA79b L2/H3
With B2, the binding result in [3] is listed as “binds”. The molecule further returned a Kd in [4] of 0.52 nM.

B3: MA79b-grafted humanized antibody (IgG) (antibody, V domains shown)
VH: EVQLVESGGGLVQPGGSLRLSCAASGYTFSSYWIEWVRQAPGKGLEWVGEILPGGGDTNYNEIFKGRFTISADTSKNTAYLQMNSLRAEDTAVYYCTRRVPVYFDYWGQGTLVTVSS
VL: DIQMTQSPSSLSASVGDRVTITCKASQSVDYDGDSFLNWYQQKPGKAPKLLIYAASNLESGVPSRFSGSGSGTDFTLTISSLQPEDFATYYCQQSNEDPLTFGQGTKVEIKR
notes: Expressed as IgG; also called huMA79b graft; huMA79b-graft
In the case of B3, the “fold reduction in binding affinity” value in test [5] is > 100 fold. Moreover, the “fold loss of affinity” value in [6] is > 50 fold.

B4: huMA79b L2-2 (Fab) (Fab, name in Kabat numbering, V domains shown)
VH: EVQLVESGGGLVQPGGSLRLSCAASGYTFSSYWIEWVRQAPGKGLEWVGEILPGGGDTNYNEIFKGRFTISADTSKNTAYLQMNSLRAEDTAVYYCTRRVPVYFDYWGQGTLVTVSS
VL: DIQMTQSPSSLSASVGDRVTITCKASQSVDYDGDSFLNWYQQKPGKAPKLLIYAARKLGRGVPSRFSGSGSGTDFTLTISSLQPEDFATYYCQQSNEDPLTFGQGTKVEIKR
notes: Fab on phage in the selection; purified Fab in FACS and Biacore; rest as huMA79b graft; also called L2-2 mutation; MA79b-grafted humanized antibody variant L2-2
With B4, the “fold improvement in monomeric binding compared to MA79b” value in [7] is 5 fold.

B5: huMA79b graft variant H1-1 (Fab) (Fab, name in Kabat numbering, V domains shown)
VH: EVQLVESGGGLVQPGGSLRLSCAASGYPFNRYWINWVRQAPGKGLEWVGEILPGGGDTNYNEIFKGRFTISADTSKNTAYLQMNSLRAEDTAVYYCTRRVPVYFDYWGQGTLVTVSS
VL: DIQMTQSPSSLSASVGDRVTITCKASQSVDYDGDSFLNWYQQKPGKAPKLLIYAASNLESGVPSRFSGSGSGTDFTLTISSLQPEDFATYYCQQSNEDPLTFGQGTKVEIKR
notes: Fab on phage in the selection; purified Fab in FACS; rest as huMA79b graft; also called H1-1 mutation
On to B5, for which the binding result in test [1] and in [2] was “binds” each time.

B6: MA79b-grafted humanized antibody variant 18 (antibody, human IgG1, kappa)
light: DIQLTQSPSSLSASVGDRVTITCKASQSVDYDGDSFLNWYQQKPGKAPKLLIYAASNLESGVPSRFSGSGSGTDFTLTISSLQPEDFATYYCQQSNEDPLTFGQGTKVEIKRTVAAPSVFIFPPSDEQLKSGTASVVCLLNNFYPREAKVQWKVDNALQSGNSQESVTEQDSKDSTYSLSSTLTLSKADYEKHKVYACEVTHQGLSSPVTKSFNRGEC
heavy: not shown
notes: IgG; also called huMA79b.v18; MA79b.v18
Regarding B6, in test [8], the “fold improvement in dimeric binding compared to variant 17” value turned out to be 2 fold.

B7: MA79b-grafted humanized antibody variant 28 (antibody, human IgG1, kappa)
light: DIQLTQSPSSLSASVGDRVTITCKASQSVDYEGDSFLNWYQQKPGKAPKLLIYAASNLESGVPSRFSGSGSGTDFTLTISSLQPEDFATYYCQQSNEDPLTFGQGTKVEIKRTVAAPSVFIFPPSDEQLKSGTASVVCLLNNFYPREAKVQWKVDNALQSGNSQESVTEQDSKDSTYSLSSTLTLSKADYEKHKVYACEVTHQGLSSPVTKSFNRGEC
heavy: not shown
notes: IgG; also called huMA79b.v28
In the case of B7, in test [9], the Kd amounted to 0.44 nM.

B8: MA79b-grafted humanized antibody variant 17 (antibody, human IgG1, kappa, V domains shown)
VH: EVQLVESGGGLVQPGGSLRLSCAASGYTFSSYWIEWVRQAPGKGLEWIGEILPGGGDTNYNEIFKGRATFSADTSKNTAYLQMNSLRAEDTAVYYCTRRVPVYFDYWGQGTLVTVSS
VL: DIQLTQSPSSLSASVGDRVTITCKASQSVDYDGDSFLNWYQQKPGKAPKLLIYAASNLESGVPSRFSGSGSGTDFTLTISSLQPEDFATYYCQQSNEDPLTFGQGTKVEIKR
notes: IgG; also called huMA79b.v17
For the molecule B8, in [8], the binding result is listed as “binds”.

B9: MA79b-grafted humanized antibody variant 32 (antibody, human IgG1, kappa, V domains shown)
VH: EVQLVESGGGLVQPGGSLRLSCAASGYTFSSYWIEWVRQAPGKGLEWIGEILPGGGDTNYNEIFKGRATFSADTSKNTAYLQMNSLRAEDTAVYYCTRRVPIRLDYWGQGTLVTVSS
VL: DIQLTQSPSSLSASVGDRVTITCKASQSVDYSGDSFLNWYQQKPGKAPKLFIYAASNLESGVPSRFSGSGSGTDFTLTISSLQPEDFATYYCQQSNEDPLTFGQGTKVEIKR
notes: also called huMA79b.v32; MA79b.v32
In [9], B9 returned a Kd of 0.24 nM.

B10: murine anti-CD79b monoclonal antibody MA79b (antibody, V domains shown)
VL: DIVLTQSPASLAVSLGQRATISCKASQSVDYDGDSFLNWYQQKPGQPPKLFIYAASNLESGIPARFSGSGSGTDFTLNIHPVEEEDAATYYCQQSNEDPLTFGAGTELELKR
VH: EVQLQQSGAELMKPGASVKISCKATGYTFSSYWIEWVKQRPGHGLEWIGEILPGGGDTNYNEIFKGKATFTADTSSNTAYMQLSSLTSEDSAVYYCTRRVPVYFDYWGQGTSVTVSS
notes: Murine IgG; 125I-labelled in the Scatchard analysis; also called murine CD79b antibody; original mouse anti-CD79b monoclonal antibody
Take B10: in [10], the “fold avidity component (IgG against Fab of MA79b)” value turned out to be 100 fold. The same molecule displayed a Kd in test [4] of 0.63 nM.

In general, Kd refers to the constant that tells how readily two partners part at equilibrium. A high value points to lower affinity.
